From patent publication US20140227782A1 (UMUVERSIDAD DE VALLADOLID, published 2014)

Target: T1, Modified biopolymer 3' (biopolymer 3, 427 amino acids, structure D-B84, with amino groups transformed into … (amino groups of the lysines of peptide D transformed into azide groups (lysine transformation rate 50%); covalently grafted to alkynyl-functionalised glass by click cycloaddition)
T1 construct: In the assay it was grafted to a glass surface through 1,2,3-triazole links; also called POLYM; 3'
T1 chain: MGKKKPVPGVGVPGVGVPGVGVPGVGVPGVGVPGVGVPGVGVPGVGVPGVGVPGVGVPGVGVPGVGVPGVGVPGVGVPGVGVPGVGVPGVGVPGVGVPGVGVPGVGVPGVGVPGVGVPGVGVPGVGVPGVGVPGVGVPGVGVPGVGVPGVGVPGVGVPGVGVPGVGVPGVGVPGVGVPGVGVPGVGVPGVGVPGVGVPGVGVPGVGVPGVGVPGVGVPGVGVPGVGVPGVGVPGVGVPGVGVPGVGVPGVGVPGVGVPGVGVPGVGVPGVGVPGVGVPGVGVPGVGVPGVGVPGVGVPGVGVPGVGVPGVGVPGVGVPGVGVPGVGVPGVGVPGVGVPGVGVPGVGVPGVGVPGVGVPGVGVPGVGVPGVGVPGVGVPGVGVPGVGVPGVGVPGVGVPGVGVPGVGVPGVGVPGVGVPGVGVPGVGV
Assay: ToF-SIMS of a glass surface grafted with polymer 3' after immersion in an aqueous solution of polymer 4

- binding result: binds
B1: Biopolymer 4 (371 amino acids), structure B14-A2-B14 (other)
chain: MESLLPVPGVGVPGVGVPGVGVPGVGVPGVGVPGVGVPGVGVPGVGVPGVGVPGVGVPGVGVPGVGVPGVGVPGVGVPGIGVPGIGVPGIGVPGIGVPGIGVPGIGVPGIGVPGIGVPGIGVPGIGAVTGRGDSPASSVPGIGVPGIGVPGIGVPGIGVPGIGVPGIGVPGIGVPGIGVPGIGVPGIGVPGIGVPGIGVPGIGVPGIGVPGIGVPGIGVPGIGVPGIGVPGIGVPGIGAVTGRGDSPASSVPGIGVPGIGVPGIGVPGIGVPGIGVPGIGVPGIGVPGIGVPGIGVPGIGVPGVGVPGVGVPGVGVPGVGVPGVGVPGVGVPGVGVPGVGVPGVGVPGVGVPGVGVPGVGVPGVGVPGVGV
notes: Unmodified polymer 4, adsorbed from aqueous solution onto the surface grafted with polymer 3'; also called POLYM
